Experimental data reported in the supplement of paper PMC9732359.
± gives the uncertainty stated by the source.

Experiment: protein stability index of a GFP-peptide fusion (yeast GPS) (PSI 1-4); higher = more stable; sorted into four equal gates, so the index is relative within each strain
In short: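 Yeast carrying a pooled library were grown to mid-log phase in leucine-free medium. Each library plasmid expresses Cherry and has a tiled 17-residue yeast protein peptide fused downstream of GFP. Cells were sorted into four equal gates by GFP/Cherry ratio, and plasmids from each gate were PCR-amplified, Illumina-sequenced and assigned to strains by barcode. Summing, across gates, the read frequency times the gate number gave each peptide's protein stability index.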

Row | Sequence | protein stability index (doa10∆) | protein stability index (pdr5∆) | protein stability index (san1∆) | protein stability index (ubr1∆)
1 | IQLSTVNRQSPLFFVDL [RGR1] | 1.59 ± 0.08 | 1.69 ± 0.094 | 1.9 ± 0.12 | 1.76 ± 0.099
2 | SAIRQVFERFKTKILEV [IRR1] | 1.87 ± 0.045 | 2.03 ± 0.06 | 1.71 ± 0.07 | 2.26 ± 0.05
3 | NEYPVADAVTKDLKLRR [REC8] | 3.08 ± 0.1 | 3.23 ± 0.095 | 3.28 ± 0.038 | 3.23 ± 0.041
4 | VISFGQPKLNPMASSSS [SWI1] | 2.15 ± 0.06 | 1.92 ± 0.074 | 2.61 ± 0.11 | 2.13 ± 0.056
5 | MTTSAVSPTVGKLFSDI [YIL149C/MLP2] | 3.1 ± 0.073 | 3.33 ± 0.064 | 3.24 ± 0.044 | 3.16 ± 0.036
6 | NIKIDAKPALFERFINA [MCD1] | 1.76 ± 0.053 | 2.8 ± 0.095 | 2.3 ± 0.1 | 2.03 ± 0.066
7 | LKEYQSKIIVFPRNGKA [RPL13A] | 3.04 ± 0.088 | 2.9 ± 0.091 | 2.98 ± 0.055 | 3 ± 0.076
8 | ESRAQNVFGQDNEDSDN [SWI3] | 3.24 ± 0.1 | 3.16 ± 0.075 | 3.33 ± 0.048 | 3.2 ± 0.052
9 | QQQQQHQQQQQQQQQQQ [SNF5] | 2.73 ± 0.04 | 2.89 ± 0.05 | 2.94 ± 0.043 | 2.97 ± 0.044
10 | KDIRSTLASLIRYNSVE [RPC82] | 2.67 ± 0.14 | 2.13 ± 0.086 | 2.67 ± 0.12 | 2.45 ± 0.11
11 | MAKTLKDLDGWQVIITD [SIR3] | 1.65 ± 0.16 | 2.4 ± 0.12 | 2.81 ± 0.14 | 2.71 ± 0.14
12 | QKLWLLECQLFPQGLNI [SSN8] | 2.16 ± 0.068 | 1.92 ± 0.06 | 1.66 ± 0.13 | 2.11 ± 0.076
13 | ASNEVIAKSRYWYFLQK [RPL20A] | 2.19 ± 0.054 | 2.66 ± 0.066 | 2.58 ± 0.063 | 2.72 ± 0.058
14 | RNRDIALFQPPNFDWDL [ROX3] | 3.12 ± 0.096 | 3.33 ± 0.12 | 3.17 ± 0.11 | 2.98 ± 0.11
15 | MVLRKQKRYTVKKALAK [RPL14A] | 2.08 ± 0.14 | 2.13 ± 0.1 | – | 1.55 ± 0.19
16 | SPDSTVNRSVVVSAVGE [YAR002W/NUP60] | 3.11 ± 0.084 | 2.91 ± 0.088 | 3.28 ± 0.063 | 2.79 ± 0.061
17 | TYIKSEITQQEKGLNEL [SMC4] | 1.88 ± 0.066 | 1.7 ± 0.059 | 2.75 ± 0.092 | 1.55 ± 0.051
18 | LGINLVTADTVILFDSD [ISW2] | 2.53 ± 0.1 | 2.65 ± 0.086 | 2.51 ± 0.16 | 2.94 ± 0.06
19 | NDQALIKVLLRQNRRPE [RET1] | 1.83 ± 0.087 | 2.45 ± 0.094 | 3.01 ± 0.079 | 2.77 ± 0.059
20 | SRRFKNGFQTGSASKAS [RPL37A] | 2.76 ± 0.075 | 2.73 ± 0.087 | 3.26 ± 0.17 | 2.58 ± 0.055
21 | RVKDIHLRKLLDGELDF [RET1] | 2.87 ± 0.06 | 2.93 ± 0.062 | 3.03 ± 0.066 | 3.02 ± 0.041
22 | TPSQIGVLLRDAHGVTQ [RPS13] | 1.74 ± 0.083 | 1.81 ± 0.15 | 1.91 ± 0.13 | 2.05 ± 0.037
23 | RPFDSFGKLLQAYQFLN [ITC1] | 1.44 ± 0.047 | 1.58 ± 0.058 | 1.48 ± 0.077 | 1.64 ± 0.053
24 | DPVSGAILVPMTVNDQP [YJR042W/NUP85] | 1.95 ± 0.18 | 2.03 ± 0.16 | 2.28 ± 0.087 | 2.4 ± 0.085
25 | DDKDCTIKISTNDDSIK [RGR1] | 2.89 ± 0.068 | 3.15 ± 0.067 | 2.98 ± 0.052 | 2.96 ± 0.057
26 | LLLKDQQTAKKLIPKLY [ECM29] | 2.1 ± 0.054 | 2.46 ± 0.061 | 2.32 ± 0.096 | 1.66 ± 0.053

Row | Sequence | protein stability index (doa10∆) | protein stability index (pdr5∆) | protein stability index (san1∆) | protein stability index (ubr1∆)
27 | ESESERKYDLFQNLELE [SMC2] | 3.37 ± 0.074 | 3.33 ± 0.077 | 3.35 ± 0.068 | 3.3 ± 0.072
28 | KVEIKKVNSRDDSFFNE [PRP28] | 3.16 ± 0.082 | 3.31 ± 0.082 | 2.71 ± 0.092 | 3.38 ± 0.12
29 | LNEYKRETLVKTWEKVT [SMC2] | 1.67 ± 0.046 | 1.84 ± 0.046 | 1.77 ± 0.083 | 2.19 ± 0.039
30 | FTNRSTMMANFEEWIKM [BRN1] | 2.12 ± 0.18 | 2.31 ± 0.19 | 2.32 ± 0.1 | 2.65 ± 0.054
31 | LQPIKGESARRFQKCFP [RPC40] | – | 3 ± 0.25 | – | –
32 | PISKHSKQAIYTRATAS [RPS25A] | 1.86 ± 0.055 | 1.86 ± 0.044 | 1.64 ± 0.08 | 1.81 ± 0.038
33 | EEAGEEEAKEEVTEEQA [RPS0A] | 3.48 ± 0.12 | 3.5 ± 0.1 | 3.02 ± 0.13 | 3.64 ± 0.092
34 | GKKLTDEINTAQDKWHL [RET1] | 3.22 ± 0.1 | 3.18 ± 0.084 | 3.09 ± 0.054 | 2.95 ± 0.13
35 | IHNYDSKKSTITVRYWL [RGR1] | 3 ± 0.087 | 2.88 ± 0.081 | 2.69 ± 0.067 | 3.09 ± 0.049
36 | EHKSQVVLYNYYLGQYY [CSN12] | 2.23 ± 0.12 | 1.81 ± 0.13 | 2.71 ± 0.086 | 2.03 ± 0.055
37 | PDFLSKYSAITSSIFQE [NUT1] | 1.88 ± 0.041 | 2.05 ± 0.042 | 2.05 ± 0.06 | 2 ± 0.033
38 | DMLLHKYYIVSSSKSMI [SRB8] | 1.26 ± 0.074 | 1.47 ± 0.062 | 1.7 ± 0.14 | 1.61 ± 0.079
39 | KTTRLLLIIRSLKNTDA [YJL039C/NUP192] | 1.51 ± 0.056 | 1.31 ± 0.053 | 1.19 ± 0.12 | 1.11 ± 0.059
40 | QMLIQGVWDVDNPLRQI [BRR2] | 3.54 ± 0.13 | 3.26 ± 0.19 | 3.47 ± 0.091 | 2.78 ± 0.14
41 | FEASCMEGQKLDDPVLN [YJR042W/NUP85] | 1.83 ± 0.088 | 1.76 ± 0.086 | 1.45 ± 0.21 | 1.53 ± 0.061
42 | GNIVAELAQDPQTMEHY [YCS4] | 2.9 ± 0.1 | 3.4 ± 0.17 | 3.44 ± 0.16 | 2.07 ± 0.11
43 | KEAAAVAEGKSKQDASP [RPL8A] | 3.22 ± 0.085 | 3.29 ± 0.056 | 3.15 ± 0.044 | 3.04 ± 0.054
44 | PYTGWVDSKTKEPVDDK [FAS2] | 3.05 ± 0.062 | 3.17 ± 0.069 | 3.05 ± 0.045 | 3.17 ± 0.053
45 | KVLNEISKTTLTLDPRY [RPN3] | 2.88 ± 0.085 | 2.99 ± 0.055 | 2.89 ± 0.05 | 3.2 ± 0.069
46 | VRAVNTGMEPGKTSFFQ [RPP0] | 2.58 ± 0.16 | 2.78 ± 0.15 | 2.8 ± 0.18 | 2.42 ± 0.25
47 | SVAVHFQYVIDESSGTS [SMC4] | 1.99 ± 0.081 | 1.6 ± 0.074 | 2.01 ± 0.074 | 1.77 ± 0.055
48 | LSLDSDVKFPSNTTTQI [SMC3] | 2.9 ± 0.25 | 3.37 ± 0.14 | 2.81 ± 0.15 | 3.32 ± 0.18
49 | DTSLCINGEPSIHVNRV [RRI1] | 2.99 ± 0.081 | 3.04 ± 0.073 | 2.99 ± 0.053 | 3.04 ± 0.05
50 | NVTMIDDLIHFTLKQWN [COR1] | 2.49 ± 0.14 | 2.89 ± 0.16 | 2.79 ± 0.081 | 2.74 ± 0.099
51 | QRQKTYVERFETQLKVV [SMC1] | 1.73 ± 0.065 | 2.51 ± 0.08 | 1.23 ± 0.2 | 1.24 ± 0.061
52 | VLDSYTPSTNEPYARVS [FAS1] | 2.94 ± 0.054 | 2.76 ± 0.053 | 2.71 ± 0.066 | 3.01 ± 0.044
